Numbered stars: 1 amine (or outer) side, 2 acyl side, 3 side chain; on linkers, the order of the positions; unused ones are H or OH. Bridge positions count the residues as written; N and C are the ends. Side chains are listed from the residue outwards. Ends that are not written are not given here. * marks the point of attachment. C20 diacid = O=C(O)CCCCCCCCCCCCCCCCCCC(=O)*; γGlu = O=C(O)[C@H](CCC(=O)[*:2])N[*:1]; AEEA = NCCOCCOCC(=O)O
B1: N^ε1-[2-[2-[2-[[(4S)-4-carboxy-4-(19-carboxynonadecanoylamino)butanoyl]amino]ethoxy]ethoxy]acetyl]-[Ala14,Arg17,Pro21,Pro27,Pro31]-h-amylin (peptide)
peptide: K([AEEA-γGlu-C20 diacid])CNTATCATQRLAAFLRHSSPNFGAIPSSTPVGSNTY-NH2
modifications: disulfide 2-7; N-terminus assumed
SMILES: CC[C@H](C)[C@H](NC(=O)[C@H](C)NC(=O)CNC(=O)[C@H](Cc1ccccc1)NC(=O)[C@H](CC(N)=O)NC(=O)[C@@H]1CCCN1C(=O)[C@H](CO)NC(=O)[C@H](CO)NC(=O)[C@H](Cc1c[nH]cn1)NC(=O)[C@H](CCCNC(=N)N)NC(=O)[C@H](CC(C)C)NC(=O)[C@H](Cc1ccccc1)NC(=O)[C@H](C)NC(=O)[C@H](C)NC(=O)[C@H](CC(C)C)NC(=O)[C@H](CCCNC(=N)N)NC(=O)[C@H](CCC(N)=O)NC(=O)[C@@H](NC(=O)[C@H](C)NC(=O)[C@@H]1CSSC[C@H](NC(=O)[C@@H](N)CCCCNC(=O)COCCOCCNC(=O)CC[C@H](NC(=O)CCCCCCCCCCCCCCCCCCC(=O)O)C(=O)O)C(=O)N[C@@H](CC(N)=O)C(=O)N[C@@H]([C@@H](C)O)C(=O)N[C@@H](C)C(=O)N[C@@H]([C@@H](C)O)C(=O)N1)[C@@H](C)O)C(=O)N1CCC[C@H]1C(=O)N[C@@H](CO)C(=O)N[C@@H](CO)C(=O)N[C@H](C(=O)N1CCC[C@H]1C(=O)N[C@H](C(=O)NCC(=O)N[C@@H](CO)C(=O)N[C@@H](CC(N)=O)C(=O)N[C@H](C(=O)N[C@@H](Cc1ccc(O)cc1)C(N)=O)[C@@H](C)O)C(C)C)[C@@H](C)O
notes: also called compound 72
B2: N^ε1-[2-[2-[2-[[(4S)-4-carboxy-4-(19-carboxynonadecanoylamino)butanoyl]amino]ethoxy]ethoxy]acetyl]-[Arg14,Arg17,Pro21,Pro27,Pro31]-h-amylin (peptide)
peptide: K([AEEA-γGlu-C20 diacid])CNTATCATQRLARFLRHSSPNFGAIPSSTPVGSNTY-NH2
modifications: disulfide 2-7; N-terminus assumed
SMILES: CC[C@H](C)[C@H](NC(=O)[C@H](C)NC(=O)CNC(=O)[C@H](Cc1ccccc1)NC(=O)[C@H](CC(N)=O)NC(=O)[C@@H]1CCCN1C(=O)[C@H](CO)NC(=O)[C@H](CO)NC(=O)[C@H](Cc1c[nH]cn1)NC(=O)[C@H](CCCNC(=N)N)NC(=O)[C@H](CC(C)C)NC(=O)[C@H](Cc1ccccc1)NC(=O)[C@H](CCCNC(=N)N)NC(=O)[C@H](C)NC(=O)[C@H](CC(C)C)NC(=O)[C@H](CCCNC(=N)N)NC(=O)[C@H](CCC(N)=O)NC(=O)[C@@H](NC(=O)[C@H](C)NC(=O)[C@@H]1CSSC[C@H](NC(=O)[C@@H](N)CCCCNC(=O)COCCOCCNC(=O)CC[C@H](NC(=O)CCCCCCCCCCCCCCCCCCC(=O)O)C(=O)O)C(=O)N[C@@H](CC(N)=O)C(=O)N[C@@H]([C@@H](C)O)C(=O)N[C@@H](C)C(=O)N[C@@H]([C@@H](C)O)C(=O)N1)[C@@H](C)O)C(=O)N1CCC[C@H]1C(=O)N[C@@H](CO)C(=O)N[C@@H](CO)C(=O)N[C@H](C(=O)N1CCC[C@H]1C(=O)N[C@H](C(=O)NCC(=O)N[C@@H](CO)C(=O)N[C@@H](CC(N)=O)C(=O)N[C@H](C(=O)N[C@@H](Cc1ccc(O)cc1)C(N)=O)[C@@H](C)O)C(C)C)[C@@H](C)O
notes: also called compound 64
B3: N^ε1-[2-[2-[2-[[(4S)-4-carboxy-4-(19-carboxynonadecanoylamino)butanoyl]amino]ethoxy]ethoxy]acetyl]-[Arg17,Pro21,Pro27,Arg34]-h-amylin (peptide)
peptide: K([AEEA-γGlu-C20 diacid])CNTATCATQRLANFLRHSSPNFGAIPSSTNVGRNTY-NH2
modifications: disulfide 2-7; N-terminus assumed
SMILES: CC[C@H](C)[C@H](NC(=O)[C@H](C)NC(=O)CNC(=O)[C@H](Cc1ccccc1)NC(=O)[C@H](CC(N)=O)NC(=O)[C@@H]1CCCN1C(=O)[C@H](CO)NC(=O)[C@H](CO)NC(=O)[C@H](Cc1c[nH]cn1)NC(=O)[C@H](CCCNC(=N)N)NC(=O)[C@H](CC(C)C)NC(=O)[C@H](Cc1ccccc1)NC(=O)[C@H](CC(N)=O)NC(=O)[C@H](C)NC(=O)[C@H](CC(C)C)NC(=O)[C@H](CCCNC(=N)N)NC(=O)[C@H](CCC(N)=O)NC(=O)[C@@H](NC(=O)[C@H](C)NC(=O)[C@@H]1CSSC[C@H](NC(=O)[C@@H](N)CCCCNC(=O)COCCOCCNC(=O)CC[C@H](NC(=O)CCCCCCCCCCCCCCCCCCC(=O)O)C(=O)O)C(=O)N[C@@H](CC(N)=O)C(=O)N[C@@H]([C@@H](C)O)C(=O)N[C@@H](C)C(=O)N[C@@H]([C@@H](C)O)C(=O)N1)[C@@H](C)O)C(=O)N1CCC[C@H]1C(=O)N[C@@H](CO)C(=O)N[C@@H](CO)C(=O)N[C@H](C(=O)N[C@@H](CC(N)=O)C(=O)N[C@H](C(=O)NCC(=O)N[C@@H](CCCNC(=N)N)C(=O)N[C@@H](CC(N)=O)C(=O)N[C@H](C(=O)N[C@@H](Cc1ccc(O)cc1)C(N)=O)[C@@H](C)O)C(C)C)[C@@H](C)O
notes: also called compound 78
B4: N^ε1-[2-[2-[2-[[(4S)-4-carboxy-4-(19-carboxynonadecanoylamino)butanoyl]amino]ethoxy]ethoxy]acetyl]-[Arg14,Arg17,Pro21,Pro27]-h-amylin (peptide)
peptide: K([AEEA-γGlu-C20 diacid])CNTATCATQRLARFLRHSSPNFGAIPSSTNVGSNTY-NH2
modifications: disulfide 2-7; N-terminus assumed
SMILES: CC[C@H](C)[C@H](NC(=O)[C@H](C)NC(=O)CNC(=O)[C@H](Cc1ccccc1)NC(=O)[C@H](CC(N)=O)NC(=O)[C@@H]1CCCN1C(=O)[C@H](CO)NC(=O)[C@H](CO)NC(=O)[C@H](Cc1c[nH]cn1)NC(=O)[C@H](CCCNC(=N)N)NC(=O)[C@H](CC(C)C)NC(=O)[C@H](Cc1ccccc1)NC(=O)[C@H](CCCNC(=N)N)NC(=O)[C@H](C)NC(=O)[C@H](CC(C)C)NC(=O)[C@H](CCCNC(=N)N)NC(=O)[C@H](CCC(N)=O)NC(=O)[C@@H](NC(=O)[C@H](C)NC(=O)[C@@H]1CSSC[C@H](NC(=O)[C@@H](N)CCCCNC(=O)COCCOCCNC(=O)CC[C@H](NC(=O)CCCCCCCCCCCCCCCCCCC(=O)O)C(=O)O)C(=O)N[C@@H](CC(N)=O)C(=O)N[C@@H]([C@@H](C)O)C(=O)N[C@@H](C)C(=O)N[C@@H]([C@@H](C)O)C(=O)N1)[C@@H](C)O)C(=O)N1CCC[C@H]1C(=O)N[C@@H](CO)C(=O)N[C@@H](CO)C(=O)N[C@H](C(=O)N[C@@H](CC(N)=O)C(=O)N[C@H](C(=O)NCC(=O)N[C@@H](CO)C(=O)N[C@@H](CC(N)=O)C(=O)N[C@H](C(=O)N[C@@H](Cc1ccc(O)cc1)C(N)=O)[C@@H](C)O)C(C)C)[C@@H](C)O
notes: also called compound 82
B5: N^ε1-[2-[2-[2-[[(4S)-4-carboxy-4-(19-carboxynonadecanoylamino)butanoyl]amino]ethoxy]ethoxy]acetyl]-[Arg17,Pro21,Pro27,His34]-h-amylin (peptide)
peptide: K([AEEA-γGlu-C20 diacid])CNTATCATQRLANFLRHSSPNFGAIPSSTNVGHNTY-NH2
modifications: disulfide 2-7; N-terminus assumed
SMILES: CC[C@H](C)[C@H](NC(=O)[C@H](C)NC(=O)CNC(=O)[C@H](Cc1ccccc1)NC(=O)[C@H](CC(N)=O)NC(=O)[C@@H]1CCCN1C(=O)[C@H](CO)NC(=O)[C@H](CO)NC(=O)[C@H](Cc1c[nH]cn1)NC(=O)[C@H](CCCNC(=N)N)NC(=O)[C@H](CC(C)C)NC(=O)[C@H](Cc1ccccc1)NC(=O)[C@H](CC(N)=O)NC(=O)[C@H](C)NC(=O)[C@H](CC(C)C)NC(=O)[C@H](CCCNC(=N)N)NC(=O)[C@H](CCC(N)=O)NC(=O)[C@@H](NC(=O)[C@H](C)NC(=O)[C@@H]1CSSC[C@H](NC(=O)[C@@H](N)CCCCNC(=O)COCCOCCNC(=O)CC[C@H](NC(=O)CCCCCCCCCCCCCCCCCCC(=O)O)C(=O)O)C(=O)N[C@@H](CC(N)=O)C(=O)N[C@@H]([C@@H](C)O)C(=O)N[C@@H](C)C(=O)N[C@@H]([C@@H](C)O)C(=O)N1)[C@@H](C)O)C(=O)N1CCC[C@H]1C(=O)N[C@@H](CO)C(=O)N[C@@H](CO)C(=O)N[C@H](C(=O)N[C@@H](CC(N)=O)C(=O)N[C@H](C(=O)NCC(=O)N[C@@H](Cc1c[nH]cn1)C(=O)N[C@@H](CC(N)=O)C(=O)N[C@H](C(=O)N[C@@H](Cc1ccc(O)cc1)C(N)=O)[C@@H](C)O)C(C)C)[C@@H](C)O
notes: also called compound 76

Target: T1, human calcitonin receptor (human, UniProt P30988 25-474)
T1 sequence (looked up): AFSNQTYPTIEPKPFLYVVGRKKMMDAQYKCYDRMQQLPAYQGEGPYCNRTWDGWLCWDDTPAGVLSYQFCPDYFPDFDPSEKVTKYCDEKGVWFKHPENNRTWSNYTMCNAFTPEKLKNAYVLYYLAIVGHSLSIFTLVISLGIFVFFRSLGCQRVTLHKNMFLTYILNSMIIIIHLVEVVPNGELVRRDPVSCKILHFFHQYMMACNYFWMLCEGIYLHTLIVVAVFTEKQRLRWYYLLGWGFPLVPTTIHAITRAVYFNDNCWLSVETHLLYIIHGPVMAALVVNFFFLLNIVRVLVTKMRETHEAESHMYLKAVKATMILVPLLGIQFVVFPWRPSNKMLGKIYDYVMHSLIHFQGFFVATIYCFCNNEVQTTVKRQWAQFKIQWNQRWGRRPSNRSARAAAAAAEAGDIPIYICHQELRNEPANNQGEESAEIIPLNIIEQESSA
Assay: cell-based or functional assay

Compared with B1, B2 is 4.8-fold higher in “hCTR funct. EC50” value: 4.76 nM for the first, 22.9 nM for the second.

Going from B3 to B4, the “hCTR funct. EC50” value rises from 8.17 nM to 12.7 nM (1.6-fold).

With B5 the “hCTR funct. EC50” value was 7.37 nM.
